5 sequences from patent US7629132B2, “Goodpasture antigen binding protein” (priority 1999, dated 2009) can be followed below.

One data set deals with PKA (Homo sapiens, UniProt P17612). The data set can be described thus: PKA phosphorylation of native GP antigen (α3(IV)NC1 domain or hexamer) in the presence of C-terminal peptides. Type of data set: biochemical. As to conditions: 0.1 μM ATP, 10 nmol peptide, purified α3(IV)NC1 domain or hexamer. On the procedure:
FIG. 16. Phosphorylation of GP alternative splicing products by PKA. In left panel, equimolecular amounts of rGP (lanes 1), rGPΔV (lanes 2), rGPΔIII (lanes 3) or rGPΔIII/IV/V (lanes 4), equivalent to 500 ng of the GP were phosphorylated at the indicated ATP concentrations. One-fifth of the total phosphorylation reaction mixture was separated by gel electrophoresis and transferred to PVDF, autoradiographed (shown) and the proteins blotted with M3/1, a specific monoclonal antibody recognizing all four species (shown) or using antibodies specific for each individual C-terminal region (not shown). […] Right panel: purified α3(IV)NC1 domain or hexamer was phosphorylated with PKA and 0.1 μM ATP in the absence (lanes 1) or in the presence of 10 nmol of peptides representing the C-terminal region of either GPΔIII (lanes 2) or GPΔIII/IV/V (lanes 3). Where indicated the phosphorylation mixtures of purified α3(IV)NC1 domain were V8 digested and immunoprecipitated with antibodies specific for the N terminus of the human α3(IV)NC1 domain (3). Bars and numbers indicate the position and sizes (kDa) of the molecular weight markers.
(§1) Phosphorylation studies. Phosphorylation studies were essentially done as described above (see also 3 and 12). In some experiments, the substrates were in-blot renatured and then, phosphorylated for 30 min at room temperature by overlaying 100 μl of phosphorylation buffer containing 0.5 μg of rGPBP. Digestion with V8 endopeptidase and immunoprecipitation were performed as described in (3).

The target of a further data set is T1, GPBP (Homo sapiens, UniProt Q9Y5P4).
T1 construct: made in house; host or cells: Pichia pastoris GS115
T1 sequence (Q9Y5P4 1-624): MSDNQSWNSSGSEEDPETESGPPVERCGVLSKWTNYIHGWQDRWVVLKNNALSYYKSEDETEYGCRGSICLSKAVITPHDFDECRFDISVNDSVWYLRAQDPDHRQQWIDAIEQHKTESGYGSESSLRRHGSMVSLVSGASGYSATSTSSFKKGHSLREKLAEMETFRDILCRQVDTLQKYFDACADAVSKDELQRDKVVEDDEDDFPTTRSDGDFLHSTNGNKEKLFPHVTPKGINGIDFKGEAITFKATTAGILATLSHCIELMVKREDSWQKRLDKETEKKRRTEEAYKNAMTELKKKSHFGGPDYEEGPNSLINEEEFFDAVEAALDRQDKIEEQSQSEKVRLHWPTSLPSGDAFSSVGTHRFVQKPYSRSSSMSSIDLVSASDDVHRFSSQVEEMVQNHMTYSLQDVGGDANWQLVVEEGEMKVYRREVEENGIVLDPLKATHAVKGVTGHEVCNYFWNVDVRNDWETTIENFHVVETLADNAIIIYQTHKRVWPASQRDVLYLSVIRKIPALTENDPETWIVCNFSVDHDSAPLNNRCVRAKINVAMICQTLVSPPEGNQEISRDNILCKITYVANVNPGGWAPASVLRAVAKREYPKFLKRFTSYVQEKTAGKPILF
The data set can be described thus: In vitro GPBP autophosphorylation in the presence of GPΔIII-derived peptide. Type of data set: biochemical. To be noted: about 200 ng rGPBP, 150 μM ATP, 5 nmol peptide. On the procedure:
FIG. 20. Regulation of the GPBP by the C terminal region of GPΔIII. About 200 ng of rGPBP were in vitro phosphorylated with 150 μM ATP in the absence (lane 1) or in the presence of 5 nmol of GPΔIII-derived peptide synthesized either using Boc-(lane 2) or Fmoc-(lane 3) chemistry. The reaction mixtures were subjected to SDS-PAGE, transferred to PVDF and autoradiographed to asses autophosphorylation, and subsequently blotted with anti-FLAG monoclonal antibodies (Sigma) to determine the amount of recombinant material present (Western).
In vitro phosphorylation assays-About 200 ng of rGPBP were incubated overnight at 30° C. in 25 mM β-glycerolphosphate (pH 7.0), 0.5 mM EDTA, 0.5 mM EGTA, 8 mM MgCl2, 5 mM MnCl2, 1 mM DTT and 0.132 μM γ-^32P-ATP, in the presence or absence of 0.5-1 μg of protein substrates or 10 nmoles of synthetic peptides, in a total volume of 50 μl.
as §1

The target in another data set is T2, rGPBP (Homo sapiens, UniProt Q9Y5P4).
T2 construct: made in house; host or cells: Pichia pastoris GS115
T2 sequence (Q9Y5P4 1-624): T1 sequence (Q9Y5P4 1-624)
The data set can be described thus: In vitro phosphorylation of GP antigen-derived peptides by rGPBP. The format is biochemical. As to conditions: about 200 ng yeast rGPBP, 10 nmoles peptide, γ-32P-ATP. On the procedure:
FIG. 5. Recombinant GPBP contains a serine/threonine kinase that specifically phosphorylates the N-terminal region of the human GP antigen. To assess phosphorylation, approximately 200 ng of yeast rGPBP was incubated with [γ]^32P-ATP in the absence (A and B) or presence of GP antigen-derived material (C). In (A), the mixture was subjected to reducing SDS-PAGE (10% gel) and autoradiographed. In (B), the mixture was subjected to ^32P-phosphoamino acid analysis by two-dimensional thin-layer chromatography. The dotted circles indicate the position of ninhydrin stained phosphoamino acids. In (C), the phosphorylation mixtures of the indicated GP-derived material were analyzed by SDS-PAGE (15% gel) and autoradiography (GPpep1 and GPpep1Ala^9) or immunoprecipitated with Mab 17, a monoclonal antibody that specifically recognize GP antigen from human and bovine origin, and analyzed by SDS-PAGE (12.5%) and autoradiography (rGP, GP). The relative positions of rGPBP (A), rGP antigen and the native human and bovine GP antigens (C) are indicated by arrows. The numbers and bars refer to molecular weight markers as in previous Figures. […]

A short description of data set [1]: Loss of PKA-inducing activity of the peptide on storage. Type of data set: physicochemical. As to conditions: long storage at low temperatures.

Take “QRAHGQDLDALFVKVLRSP [GPΔIII derived peptide, synthetic peptide representing the C-terminal region of GPΔIII, chemistry not specified at the place]”: the “induction of GP antigen phosphorylation by PKA” value (“induction” for short) in the data set with PKA (listed as SEQ ID NO: 43) is on record as “induced the phosphorylation of a single polypeptide”.

In the case of “QRAHGQDLDALFVKVLRSP [Fmoc-based peptide]”, the “effect on GPBP autophosphorylation” value in the data set with GPBP is “inhibited GPBP autophosphorylation”. Moreover, the “induction” value in the data set with PKA (listed as Fmoc-based peptides) is recorded as “not”.

For the sequence “QRAHGQDLESLFHQL [GPΔIII/IV/V derived peptide, synthetic peptide representing the C-terminal region of GPΔIII/IV/V]”, in the data set with PKA, the “induction” value was “induced the phosphorylation of a single polypeptide”.

With “KGKRGDAGSPATWTTRGFVFT [GPpep1Ala^9, mutant Ser9 to Ala9 of GPpep1, residues 3-23 of the human GP antigen]”, in the data set with rGPBP, the “32P incorporation by rGPBP, compared with GPpep1” value is “lower ^32P incorporation”.

As to QRAHGQDLDALFVKVLRSP [Boc-based peptide], the “effect on GPBP autophosphorylation” value with GPBP (listed as Boc-based synthetic peptides) is “positively influenced GPBP autophosphorylation”. In data set [1], the “stability of biological activity (ability to induce PKA) on storage” value is listed as “loses its ability to induce PKA upon long storage at low temperatures”.
